B1: ALIVSLPYL (SEQ ID NO: 1) (peptide)
peptide: ALIVSLPYL
notes: source gene SLC17A3; also called SLC17A3-001

The test deals with T1, HLA-A*02:01 (human).
T1 construct: MHC monomers first loaded with a UV-sensitive peptide (not identified) that is cleaved by UV light and exchanged for the test peptide; captured on streptavidin plates, detected with anti-β2m; also called peptide-receptive MHC molecules; MHC class I
Description: UV-ligand exchange + anti-b2m ELISA; peptide exchange yield grade (+ >=10%, ++ >=20%, +++ >=50, ++++ >=75%). The source says:
Candidate peptides for T cell based therapies according to the present invention were further tested for their MHC binding capacity (affinity). The individual peptide-MHC complexes were produced by UV-ligand exchange, where a UV-sensitive peptide is cleaved upon UV-irradiation, and exchanged with the peptide of interest as analyzed. Only peptide candidates that can effectively bind and stabilize the peptide-receptive MHC molecules prevent dissociation of the MHC complexes. To determine the yield of the exchange reaction, an ELISA was performed based on the detection of the light chain (β2m) of stabilized MHC complexes. The assay was performed as generally described in Rodenko et al. (Rodenko et al., 2006).
96 well MAXISorp plates (NUNC) were coated over night with 2 ug/ml streptavidin in PBS at room temperature, washed 4× and blocked for 1h at 37° C. in 2% BSA containing blocking buffer. Refolded HLA-A*02:01/MLA-001 monomers served as standards, covering the range of 15-500 ng/ml. Peptide-MHC monomers of the UV-exchange reaction were diluted 100 fold in blocking buffer. Samples were incubated for 1 h at 37° C., washed four times, incubated with 2 ug/ml HRP conjugated anti-β2m for 1h at 37° C., washed again and detected with TMB solution that is stopped with […]. Absorption was measured at 450 nm. Candidate peptides that show a high exchange yield (preferably higher than 50%, most preferred higher than 75%) are generally preferred for a generation and production of antibodies or fragments thereof, and/or T cell receptors or fragments thereof, as they show sufficient avidity to the MHC molecules and prevent dissociation of the MHC complexes.
For orientation: In an ELISA, binding on a coated surface is turned into a signal by an enzyme label.
On to YLWSRVEKL (source gene LRRK2) [YLWSRVEKL (SEQ ID NO: 109)], for which the peptide exchange yield was at least 75%.

Regarding ILLDLEQAL (source gene CUL7) [ILLDLEQAL (SEQ ID NO: 29)], the peptide exchange yield was 50 to 75%.

With ELNNQNFYL (source gene CIT) [ELNNQNFYL (SEQ ID NO: 34)], the peptide exchange yield lay within 50 to 75%.

Consider YVLDLAAKV (source gene ACLY) [YVLDLAAKV (SEQ ID NO: 18)], for which the peptide exchange yield lay in the range of 50 to 75%.

Turning to YIQEVVQYI (source gene PLCB1) [YIQEVVQYI (SEQ ID NO: 23)], the peptide exchange yield was 50 to 75%.

As for SILDAVQRV (source gene PXDNL) [SILDAVQRV (SEQ ID NO: 52)], the peptide exchange yield was 20 to 50%.

ALADLDELLIRA (source gene HSPG2) [ALADLDELLIRA (SEQ ID NO: 105)]: the peptide exchange yield was 50 to 75%.

With VLLDTILQL (source gene HSF2BP) [VLLDTILQL (SEQ ID NO: 38)], the peptide exchange yield is 50 to 75%.

With ALLTETIFL (source gene LRRK2) [ALLTETIFL (SEQ ID NO: 14)], the peptide exchange yield lay within 20 to 50%.

With RLLGEVQAL (source gene HSF4) [RLLGEVQAL (SEQ ID NO: 3)], the peptide exchange yield was in the range of 20 to 50%.

Regarding SLFDWNVKL (source gene UBE2QL1) [SLFDWNVKL (SEQ ID NO: 113)], the peptide exchange yield is 50 to 75%.

Take TLLETEMLL (source gene CEP44) [TLLETEMLL (SEQ ID NO: 111)]: the peptide exchange yield lay within 20 to 50%.

On to GLSEVLVQI (source gene MICAL3) [GLSEVLVQI (SEQ ID NO: 46)], for which the peptide exchange yield fell in the range of 50 to 75%.

Consider QLFYTKIFL (source gene PLOD1) [QLFYTKIFL (SEQ ID NO: 30)], for which the peptide exchange yield lay within 20 to 50%.

Take VVASNIMEV (source gene PFKFB3) [VVASNIMEV (SEQ ID NO: 48)]: the peptide exchange yield lay in the range of 20 to 50%.

With FLLEIRQTL (source gene SNX13) [FLLEIRQTL (SEQ ID NO: 53)], the peptide exchange yield lay in the range of 20 to 50%.

Turning to SLSDLLVSL (source gene OPN3) [SLSDLLVSL (SEQ ID NO: 27)], the peptide exchange yield was in the range of 50 to 75%.

With VLMDLKALLL (source gene DDX41) [VLMDLKALLL (SEQ ID NO: 107)], the peptide exchange yield was in the range of 50 to 75%.

As to KLQDGLLHI (source gene TIMP1) [KLQDGLLHI (SEQ ID NO: 103)], the peptide exchange yield is 20 to 50%.

Turning to KLLQNNYGL (source gene RGS5) [KLLQNNYGL (SEQ ID NO: 10)], the peptide exchange yield fell in the range of 20 to 50%.

Consider FLSPPLPSV (source genes BCKDHA, TMEM91) [FLSPPLPSV (SEQ ID NO: 22)], for which the peptide exchange yield is 50 to 75%.

Turning to FTLGTTVFL (source gene NDUFC1) [FTLGTTVFL (SEQ ID NO: 24)], the peptide exchange yield was in the range of 50 to 75%.

Regarding ILIKHLVKV (source gene ARHGAP42) [ILIKHLVKV (SEQ ID NO: 15)], the peptide exchange yield lay within 20 to 50%.

Take VLHSLQTQL (source gene ANGPTL4) [VLHSLQTQL (SEQ ID NO: 35)]: the peptide exchange yield lay in the range of 20 to 50%.

As for VLISVLQAI (source gene CYFIP2) [VLISVLQAI (SEQ ID NO: 108)], the peptide exchange yield lay within 20 to 50%.

In the case of ALDPSGNQLI (source gene SEMA5B) [ALDPSGNQLI (SEQ ID NO: 12)], the peptide exchange yield was 20 to 50%.

For the molecule FIADLVVGL (source genes ENO1, ENO2, ENO3) [FIADLVVGL (SEQ ID NO: 28)], the peptide exchange yield fell in the range of 20 to 50%.

For ALAVNISAA (source gene CCT6A) [ALAVNISAA (SEQ ID NO: 114)], the peptide exchange yield lay within 50 to 75%.

As to NLWPMILTL (source gene ITGA3) [NLWPMILTL (SEQ ID NO: 51)], the peptide exchange yield fell in the range of 50 to 75%.

Turning to SLFGKKYIL (source gene FHL2) [SLFGKKYIL (SEQ ID NO: 36)], the peptide exchange yield lay within 20 to 50%.

Take RLIQGDQILSV (source gene INADL) [RLIQGDQILSV (SEQ ID NO: 21)]: the peptide exchange yield was 20 to 50%.

FIQTEAPKEV (source gene RGS5) [FIQTEAPKEV (SEQ ID NO: 11)]: the peptide exchange yield was in the range of 20 to 50%.

With GLLKTLQKL (source gene CLIC4) [GLLKTLQKL (SEQ ID NO: 41)], the peptide exchange yield was 20 to 50%.

LLFDHLEPIEL (source gene RASGRP3) [LLFDHLEPIEL (SEQ ID NO: 112)]: the peptide exchange yield fell in the range of 50 to 75%.

Consider ILAQQVHAL (source gene KIF12) [ILAQQVHAL (SEQ ID NO: 17)], for which the peptide exchange yield fell in the range of 50 to 75%.

As for LLDPGSLQL (source gene SYNDIG1L) [LLDPGSLQL (SEQ ID NO: 19)], the peptide exchange yield was 20 to 50%.

Regarding VLIVEVPGV (source gene ADCY5) [VLIVEVPGV (SEQ ID NO: 49)], the peptide exchange yield lay in the range of 50 to 75%.

Turning to SLSDHIVLL (source gene ITGA3) [SLSDHIVLL (SEQ ID NO: 50)], the peptide exchange yield was in the range of 20 to 50%.

For the molecule FIADVVEKI (source genes HTRA1, HTRA3) [FIADVVEKI (SEQ ID NO: 33)], the peptide exchange yield was 20 to 50%.

With YIQEHLLQI (source gene IVNS1ABP) [YIQEHLLQI (SEQ ID NO: 40)], the peptide exchange yield is 50 to 75%.

In the case of ILWREVVTL (source gene HSF4) [ILWREVVTL (SEQ ID NO: 2)], the peptide exchange yield was in the range of 50 to 75%.

Take VLFGLDPAVIKV (source gene HSPA12A) [VLFGLDPAVIKV (SEQ ID NO: 31)]: the peptide exchange yield was 50 to 75%.

Turning to AVANTTFTV (source gene HSD3B7) [AVANTTFTV (SEQ ID NO: 20)], the peptide exchange yield was 20 to 50%.

On to VILDTGTIQL (source gene NAT8) [VILDTGTIQL (SEQ ID NO: 42)], for which the peptide exchange yield is 20 to 50%.

For KIMAQILTV (source gene LRRK2) [KIMAQILTV (SEQ ID NO: 13)], the peptide exchange yield is 50 to 75%.

As for ALFEGVVRQI (source gene RRAD) [ALFEGVVRQI (SEQ ID NO: 104)], the peptide exchange yield was in the range of 50 to 75%.

As for ALVAKGLVQA (source gene AKR1A1) [ALVAKGLVQA (SEQ ID NO: 54)], the peptide exchange yield fell in the range of 20 to 50%.

On to LLVPAHLVAA (source gene ESM1) [LLVPAHLVAA (SEQ ID NO: 25)], for which the peptide exchange yield fell in the range of 20 to 50%.

Consider FMPEELPQL (source gene THNSL2) [FMPEELPQL (SEQ ID NO: 16)], for which the peptide exchange yield fell in the range of 20 to 50%.

Take VLAPVILML (source gene ABCC3) [VLAPVILML (SEQ ID NO: 37)]: the peptide exchange yield fell in the range of 20 to 50%.

For ALFSFVTAL (source gene TTYH3) [ALFSFVTAL (SEQ ID NO: 44)], the peptide exchange yield was 50 to 75%.

In the case of YLKDELDEL (source gene SOGA2) [YLKDELDEL (SEQ ID NO: 43)], the peptide exchange yield is 50 to 75%.

In the case of YLLNLNHLGL (source gene TRAM1) [YLLNLNHLGL (SEQ ID NO: 39)], the peptide exchange yield was 50 to 75%.

As for FLSQDIITV (source gene REN) [FLSQDIITV (SEQ ID NO: 4)], the peptide exchange yield fell in the range of 50 to 75%.

Turning to TLAEVRAVQEI (source gene SMYD2) [TLAEVRAVQEI (SEQ ID NO: 47)], the peptide exchange yield lay in the range of 50 to 75%.

In the case of B1, the peptide exchange yield is 50 to 75%.

On to ALLGIPLTL (source genes KCNK3, KCNK15) [ALLGIPLTL (SEQ ID NO: 45)], for which the peptide exchange yield is 50 to 75%.

As to VLMDLKALL (source gene DDX41) [VLMDLKALL (SEQ ID NO: 106)], the peptide exchange yield lay within 50 to 75%.

In the case of YLYPNLTRL (source gene SLC6A13) [YLYPNLTRL (SEQ ID NO: 5)], the peptide exchange yield lay in the range of 20 to 50%.

Regarding LLDLHSYLL (source gene MARCH6) [LLDLHSYLL (SEQ ID NO: 110)], the peptide exchange yield lay in the range of 20 to 50%.

The values above are taken from US20160287687A1 (IMMATICS BIOTECHNOLOGIES, published 2016).
